# Measurements reported in patent publication US20200188479A1, “APPARATUS AND METHODS FOR ADMINISTRATION OF A NAUSEOGENIC COMPOUND FROM A DRUG DELIVERY DEVICE” (INTARCIA THERAPEUTICS, INC., priority 2017, published 2020).
# Read-outs that look alike come from different tables or passages of the source.
# Assays:
# [1] = cited from earlier work; for half-life in human serum: following subcutaneous administration
# [2] = Predicted human plasma concentration profiles of GLP-1 agonists dosed by periodic injection, model fitted to published human pharmacokinetic data; details: for peak-trough / peak relative to mean: periodic injection dosed according to prescribers' information; for d[drug]/dt: periodic injection, percent of steady state mean concentration per hour
# Text: Two compartments (SC and Central) are contemplated. A constant fraction of SC drug enters the Central compartment per unit time (defined by Ka). A constant fraction of Central drug is eliminated per unit time (defined by K). Central drug concentration (equal to plasma drug concentration) is an amount of drug in the Central compartment (A) diluted into its volume of distribution (Vd).
# Plasma concentrations are each expressed as a fraction of […] plasma concentration i.e., steady state concentration (Css). The predictions are based upon published human pharmacokinetic data, with either raw plasma concentration data or data digitized from published figures for a single subcutaneous dose. The plasma concentrations were fitted to a model describing “absorption+single component decay” for each agent, as depicted in FIG. 13, based upon a rate constant for absorption from a subcutaneous depot into the plasma, and another rate constant for elimination from the plasma compartment. Data were fit using non-linear regression via an iterative least-squares method within Prism v7.0 (GraphPad Software Inc., San Diego, Calif.).
# The derived plasma concentration profile for a single subcutaneous bolus was extended from the time of dosing until plasma concentrations were negligible. This profile was serially added to itself, staggered by a period determined by the indicated dose interval, and in a magnitude determined by the recommended dose increases. The numeric sum is shown as the black line in each plot.
# (§1) Rate of change of drug concentration, particularly positive rate of change, d[drug]/dt, was derived as the first differential of the plasma concentration profile summed as described above. The d[drug]/dt was expressed with “d[drug]” units reduced to percent of steady state mean concentration of indicated doses, to enable comparisons between agents with differing potencies and pharmacokinetics. The “dt” units were hours. The X-axes in FIGS. 10 and 12 represent the d[drug]/dt thus obtained, in units of “% of steady-state mean (i.e., Css) per hour”.
# [3] = patients, cited from earlier work
# [4] = Estimated d[drug]/dt if administered via single subdermal placement of an osmotic drug delivery device; parameters: species or system human
# Text: as §1
# [5] = biological target: T1, human GLP-1 receptors (Homo sapiens, UniProt P43220); assay: Albumin binding assessed by potency shift: cAMP activation of GLP-1 receptors expressed in CHO-K1 cells at different HSA concentrations; format: cell-based; details: potency decreased with increasing albumin concentration; final HSA 0-4%
# T1 construct: expressed in transfected cells; host or cells: CHO-K1 (transient transfection, Lipofectamine 2000)
# Text: EC50 values were converted to pEC50 values using the formula: pEC50=−Log(EC50).
# [6] = periodic injection of aqueous solution
# [7] = periodic injection (weekly aqueous solution)
# T1 sequence (P43220 24-463): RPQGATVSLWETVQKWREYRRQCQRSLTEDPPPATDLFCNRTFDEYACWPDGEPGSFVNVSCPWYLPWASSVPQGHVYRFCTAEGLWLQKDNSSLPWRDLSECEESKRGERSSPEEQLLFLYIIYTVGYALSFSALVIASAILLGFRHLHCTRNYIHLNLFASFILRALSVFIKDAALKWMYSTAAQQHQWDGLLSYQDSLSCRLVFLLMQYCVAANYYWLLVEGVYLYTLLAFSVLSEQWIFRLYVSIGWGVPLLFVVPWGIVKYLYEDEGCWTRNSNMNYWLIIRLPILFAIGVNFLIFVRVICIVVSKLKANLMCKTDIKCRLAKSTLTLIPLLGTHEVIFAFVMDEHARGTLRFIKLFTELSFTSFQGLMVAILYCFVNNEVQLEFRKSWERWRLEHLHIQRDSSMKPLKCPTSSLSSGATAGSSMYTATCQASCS
substance,measurement,setting,value
GLP-1,t1/2,"[1]; peptidase prone GLP-1, by contrast to exenatide",~3.4 min
albiglutide,peak-trough,[2],28 % of peak
same,half-life,[1]; in humans,140 to 190 h
des-Pro^36-exendin-4(1-39)-Lys6-NH2 [lixisenatide],peak relative to mean,[2],2.4 × mean
same,peak-trough,[2],97 % of peak
same,Tmax,[2]; [6],~1.7 h
same,t1/2,[2]; [6],~3.0 h
same,d[drug]/dt,[2],204 % mean/hour
same,nausea,"[3]; daily injection, in 24 weeks",26%
same,vomiting,"[3]; daily injection, in 24 weeks",11%
same,half-life in human serum,[1],approximately several hours
same,terminal half-life,"[1]; humans, subcutaneous administration",approximately 3 h
dulaglutide,peak-trough,[2],63 % of peak
semaglutide,Tmax,[2]; [7],~76.8 h
same,t1/2,[2]; [7],~199 h
same,peak relative to mean,[2],1.12 × mean
same,peak-trough,[2],26 % of peak
same,d[drug]/dt,[2],3.3 % mean/hour
same,nausea reported,[3]; weekly injection,22%
same,withdrawn,[3]; weekly injection,6%
same,"d[drug]/dt, times lower than d[exenatide]/dt",[4],35 ×
same,half-life in human serum,[1],~165 h
same,albumin (HSA) concentration at mid-range of the potency change,[5],~0.6%
